In patent publication US5418135:

Each substance was assayed against PDGF receptor (cell membrane-bound receptor for native PDGF).

Row | HALF-MAX INHIBITION (3H-thymidine incorporation induced by PDGF dimer) | Substance
1 | 100 nM | A4, Endo Lys-C fragment aa 80-110 of alkylated PDGF A monomer (peptide)
2 | > 200 nM | A6, Endo Lys-C fragment aa 12-41 of alkylated PDGF A monomer (peptide)
3 | 100 nM | PDGF A chain monomer, intact, Cys residues pyridylethylated (ligand)
